Test results published in patent US20140213513A1 (Sanofi, priority 2012, published 2014).
*1 amine or outer side, *2 acyl side, *3 side chain or, on linkers, in order; H or OH if unused. Where no end group is shown, it is not given here. Side-chain parts run from the residue outwards. [ ]: non-standard residue; d: D form. The star is where a group is joined. γGlu = O=C(O)[C@H](CCC(=O)[*:2])N[*:1]; Palmitoyl = CCCCCCCCCCCCCCCC(=O)*; Aib = CC(C)(N)C(=O)O

B1: exendin-4 peptide analogue SEQ ID NO: 52 (peptide)
peptide: Y[Aib]QGTFTSDLSIQK([γGlu-Palmitoyl])DSRRAQDFIEWLKAGGPSSGAPPPS-NH2
modifications: N-terminus assumed
SMILES: CCCCCCCCCCCCCCCC(=O)N[C@@H](CCC(=O)NCCCC[C@H](NC(=O)[C@H](CCC(N)=O)NC(=O)[C@@H](NC(=O)[C@H](CO)NC(=O)[C@H](CC(C)C)NC(=O)[C@H](CC(=O)O)NC(=O)[C@H](CO)NC(=O)[C@@H](NC(=O)[C@H](Cc1ccccc1)NC(=O)[C@@H](NC(=O)CNC(=O)[C@H](CCC(N)=O)NC(=O)C(C)(C)NC(=O)[C@@H](N)Cc1ccc(O)cc1)[C@@H](C)O)[C@@H](C)O)[C@@H](C)CC)C(=O)N[C@@H](CC(=O)O)C(=O)N[C@@H](CO)C(=O)N[C@@H](CCCNC(=N)N)C(=O)N[C@@H](CCCNC(=N)N)C(=O)N[C@@H](C)C(=O)N[C@@H](CCC(N)=O)C(=O)N[C@@H](CC(=O)O)C(=O)N[C@@H](Cc1ccccc1)C(=O)N[C@H](C(=O)N[C@@H](CCC(=O)O)C(=O)N[C@@H](Cc1c[nH]c2ccccc12)C(=O)N[C@@H](CC(C)C)C(=O)N[C@@H](CCCCN)C(=O)N[C@@H](C)C(=O)NCC(=O)NCC(=O)N1CCC[C@H]1C(=O)N[C@@H](CO)C(=O)N[C@@H](CO)C(=O)NCC(=O)N[C@@H](C)C(=O)N1CCC[C@H]1C(=O)N1CCC[C@H]1C(=O)N1CCC[C@H]1C(=O)N[C@@H](CO)C(N)=O)[C@@H](C)CC)C(=O)O
B2: exendin-4 peptide analogue SEQ ID NO: 53 (peptide)
peptide: Y[Aib]QGTFTSDLSIQK([γGlu-Palmitoyl])DKRRAQDFIEWLKAGGPSSGAPPPS-NH2
modifications: N-terminus assumed
SMILES: CCCCCCCCCCCCCCCC(=O)N[C@@H](CCC(=O)NCCCC[C@H](NC(=O)[C@H](CCC(N)=O)NC(=O)[C@@H](NC(=O)[C@H](CO)NC(=O)[C@H](CC(C)C)NC(=O)[C@H](CC(=O)O)NC(=O)[C@H](CO)NC(=O)[C@@H](NC(=O)[C@H](Cc1ccccc1)NC(=O)[C@@H](NC(=O)CNC(=O)[C@H](CCC(N)=O)NC(=O)C(C)(C)NC(=O)[C@@H](N)Cc1ccc(O)cc1)[C@@H](C)O)[C@@H](C)O)[C@@H](C)CC)C(=O)N[C@@H](CC(=O)O)C(=O)N[C@@H](CCCCN)C(=O)N[C@@H](CCCNC(=N)N)C(=O)N[C@@H](CCCNC(=N)N)C(=O)N[C@@H](C)C(=O)N[C@@H](CCC(N)=O)C(=O)N[C@@H](CC(=O)O)C(=O)N[C@@H](Cc1ccccc1)C(=O)N[C@H](C(=O)N[C@@H](CCC(=O)O)C(=O)N[C@@H](Cc1c[nH]c2ccccc12)C(=O)N[C@@H](CC(C)C)C(=O)N[C@@H](CCCCN)C(=O)N[C@@H](C)C(=O)NCC(=O)NCC(=O)N1CCC[C@H]1C(=O)N[C@@H](CO)C(=O)N[C@@H](CO)C(=O)NCC(=O)N[C@@H](C)C(=O)N1CCC[C@H]1C(=O)N1CCC[C@H]1C(=O)N1CCC[C@H]1C(=O)N[C@@H](CO)C(N)=O)[C@@H](C)CC)C(=O)O
B3: exendin-4 peptide analogue SEQ ID NO: 54 (peptide)
peptide: Y[Aib]EGTFTSDLSIQK([γGlu-Palmitoyl])DKRKAQDFIEWLKNGGPSSGAPPPS-NH2
modifications: N-terminus assumed
SMILES: CCCCCCCCCCCCCCCC(=O)N[C@@H](CCC(=O)NCCCC[C@H](NC(=O)[C@H](CCC(N)=O)NC(=O)[C@@H](NC(=O)[C@H](CO)NC(=O)[C@H](CC(C)C)NC(=O)[C@H](CC(=O)O)NC(=O)[C@H](CO)NC(=O)[C@@H](NC(=O)[C@H](Cc1ccccc1)NC(=O)[C@@H](NC(=O)CNC(=O)[C@H](CCC(=O)O)NC(=O)C(C)(C)NC(=O)[C@@H](N)Cc1ccc(O)cc1)[C@@H](C)O)[C@@H](C)O)[C@@H](C)CC)C(=O)N[C@@H](CC(=O)O)C(=O)N[C@@H](CCCCN)C(=O)N[C@@H](CCCNC(=N)N)C(=O)N[C@@H](CCCCN)C(=O)N[C@@H](C)C(=O)N[C@@H](CCC(N)=O)C(=O)N[C@@H](CC(=O)O)C(=O)N[C@@H](Cc1ccccc1)C(=O)N[C@H](C(=O)N[C@@H](CCC(=O)O)C(=O)N[C@@H](Cc1c[nH]c2ccccc12)C(=O)N[C@@H](CC(C)C)C(=O)N[C@@H](CCCCN)C(=O)N[C@@H](CC(N)=O)C(=O)NCC(=O)NCC(=O)N1CCC[C@H]1C(=O)N[C@@H](CO)C(=O)N[C@@H](CO)C(=O)NCC(=O)N[C@@H](C)C(=O)N1CCC[C@H]1C(=O)N1CCC[C@H]1C(=O)N1CCC[C@H]1C(=O)N[C@@H](CO)C(N)=O)[C@@H](C)CC)C(=O)O
B4: exendin-4 peptide analogue SEQ ID NO: 56 (peptide)
peptide: Y[Aib]QGTFTSDLSKQK([γGlu-Palmitoyl])DSRAARDFIEWLKAGGPSSGAPPPS-NH2
modifications: N-terminus assumed
SMILES: CCCCCCCCCCCCCCCC(=O)N[C@@H](CCC(=O)NCCCC[C@H](NC(=O)[C@H](CCC(N)=O)NC(=O)[C@H](CCCCN)NC(=O)[C@H](CO)NC(=O)[C@H](CC(C)C)NC(=O)[C@H](CC(=O)O)NC(=O)[C@H](CO)NC(=O)[C@@H](NC(=O)[C@H](Cc1ccccc1)NC(=O)[C@@H](NC(=O)CNC(=O)[C@H](CCC(N)=O)NC(=O)C(C)(C)NC(=O)[C@@H](N)Cc1ccc(O)cc1)[C@@H](C)O)[C@@H](C)O)C(=O)N[C@@H](CC(=O)O)C(=O)N[C@@H](CO)C(=O)N[C@@H](CCCNC(=N)N)C(=O)N[C@@H](C)C(=O)N[C@@H](C)C(=O)N[C@@H](CCCNC(=N)N)C(=O)N[C@@H](CC(=O)O)C(=O)N[C@@H](Cc1ccccc1)C(=O)N[C@H](C(=O)N[C@@H](CCC(=O)O)C(=O)N[C@@H](Cc1c[nH]c2ccccc12)C(=O)N[C@@H](CC(C)C)C(=O)N[C@@H](CCCCN)C(=O)N[C@@H](C)C(=O)NCC(=O)NCC(=O)N1CCC[C@H]1C(=O)N[C@@H](CO)C(=O)N[C@@H](CO)C(=O)NCC(=O)N[C@@H](C)C(=O)N1CCC[C@H]1C(=O)N1CCC[C@H]1C(=O)N1CCC[C@H]1C(=O)N[C@@H](CO)C(N)=O)[C@@H](C)CC)C(=O)O
B5: exendin-4 peptide analogue SEQ ID NO: 55 (peptide)
peptide: Y[Aib]EGTFTSDLSIQK([γGlu-Palmitoyl])DKRAAQLFIEWLKNGGPSSGAPPPS-NH2
modifications: N-terminus assumed
SMILES: CCCCCCCCCCCCCCCC(=O)N[C@@H](CCC(=O)NCCCC[C@H](NC(=O)[C@H](CCC(N)=O)NC(=O)[C@@H](NC(=O)[C@H](CO)NC(=O)[C@H](CC(C)C)NC(=O)[C@H](CC(=O)O)NC(=O)[C@H](CO)NC(=O)[C@@H](NC(=O)[C@H](Cc1ccccc1)NC(=O)[C@@H](NC(=O)CNC(=O)[C@H](CCC(=O)O)NC(=O)C(C)(C)NC(=O)[C@@H](N)Cc1ccc(O)cc1)[C@@H](C)O)[C@@H](C)O)[C@@H](C)CC)C(=O)N[C@@H](CC(=O)O)C(=O)N[C@@H](CCCCN)C(=O)N[C@@H](CCCNC(=N)N)C(=O)N[C@@H](C)C(=O)N[C@@H](C)C(=O)N[C@@H](CCC(N)=O)C(=O)N[C@@H](CC(C)C)C(=O)N[C@@H](Cc1ccccc1)C(=O)N[C@H](C(=O)N[C@@H](CCC(=O)O)C(=O)N[C@@H](Cc1c[nH]c2ccccc12)C(=O)N[C@@H](CC(C)C)C(=O)N[C@@H](CCCCN)C(=O)N[C@@H](CC(N)=O)C(=O)NCC(=O)NCC(=O)N1CCC[C@H]1C(=O)N[C@@H](CO)C(=O)N[C@@H](CO)C(=O)NCC(=O)N[C@@H](C)C(=O)N1CCC[C@H]1C(=O)N1CCC[C@H]1C(=O)N1CCC[C@H]1C(=O)N[C@@H](CO)C(N)=O)[C@@H](C)CC)C(=O)O

Key:
Assay in all cases: cell-based or functional assay
human GIP receptor = target: T1, human GIP receptor (human, UniProt P48546 22-466)
T1 sequence (looked up): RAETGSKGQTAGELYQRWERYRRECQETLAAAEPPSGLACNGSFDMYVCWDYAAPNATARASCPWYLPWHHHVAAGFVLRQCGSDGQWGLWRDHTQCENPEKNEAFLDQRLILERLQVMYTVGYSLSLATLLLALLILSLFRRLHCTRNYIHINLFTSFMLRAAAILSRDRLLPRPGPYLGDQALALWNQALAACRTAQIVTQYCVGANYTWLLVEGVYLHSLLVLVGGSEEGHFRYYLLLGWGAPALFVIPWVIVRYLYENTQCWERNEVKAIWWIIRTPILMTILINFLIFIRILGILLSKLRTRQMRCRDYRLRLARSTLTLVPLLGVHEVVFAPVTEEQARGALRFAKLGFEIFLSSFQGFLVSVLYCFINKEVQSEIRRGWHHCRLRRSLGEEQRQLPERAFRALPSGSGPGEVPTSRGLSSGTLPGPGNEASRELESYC

human glucagon receptor = human glucagon receptor (human, UniProt P47871 26-477)
human GLP-1 receptor = human GLP-1 receptor (human, UniProt P43220 24-463)

human glucagon receptor, sequence (P47871 26-477): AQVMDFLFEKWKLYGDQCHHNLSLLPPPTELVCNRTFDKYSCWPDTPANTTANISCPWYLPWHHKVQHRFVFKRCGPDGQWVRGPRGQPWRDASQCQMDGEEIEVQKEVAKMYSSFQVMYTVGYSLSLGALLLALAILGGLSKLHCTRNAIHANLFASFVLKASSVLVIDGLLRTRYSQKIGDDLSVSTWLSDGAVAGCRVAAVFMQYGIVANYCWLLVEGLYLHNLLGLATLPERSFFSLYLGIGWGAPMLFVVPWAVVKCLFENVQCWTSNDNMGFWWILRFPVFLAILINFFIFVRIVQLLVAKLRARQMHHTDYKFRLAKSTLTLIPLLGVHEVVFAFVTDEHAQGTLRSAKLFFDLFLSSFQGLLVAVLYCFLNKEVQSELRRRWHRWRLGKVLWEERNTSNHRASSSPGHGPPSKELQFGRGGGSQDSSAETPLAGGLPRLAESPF

Binder | EC50 hGIP R (human GIP receptor) [nM] | EC50 hGLUC R (human glucagon receptor) [nM] | EC50 hGLP-1 R (human GLP-1 receptor) [nM]
B1 | 0.182 | 0.0133 | 0.0256
B2 | 0.0932 | 0.0079 | 0.0136
B3 | 0.105 | 2.62 | 0.0668
B4 | 0.162 | 0.0199 | 0.0046
B5 | 0.0156 | 18.3 | 0.0161
